From PMC6981877, “Conformational Plasticity of the Active Site Entrance in E. coli Aspartate Transcarbamoylase and Its Implication in Feedback Regulation” (International Journal of Molecular Sciences, 2020)

Target: the molecule itself
Test: crystal structure; native wild-type apo holoenzyme extracted from E. coli BL21(DE3); hanging drop, 0.1 M MES pH 6.0, 10% glycerol, 10% PEG 8000; space group R32, one catalytic and one regulatory chain in the asymmetric unit; 2.06 Å

Protein | binding result
E. coli aspartate transcarbamoylase (ATCase) catalytic chain (enzyme, E. coli (endogenous in BL21(DE3)), UniProt P0A786 1-311, looked up, Aspartate transcarbamoylase catalytic chain, E. coli, wild type, native form lacking the His tag; Crystallised as part of the native holoenzyme; also called catalytic subunit; source: endogenous, extracted from E. coli BL21(DE3), purified as native holoenzyme (Ni-NTA, HiLoad Superdex 200)) MANPLYQKHIISINDLSRDDLNLVLATAAKLKANPQPELLKHKVIASCFFEASTRTRLSFETSMHRLGASVVGFSDSANTSLGKKGETLADTISVISTYVDAIVMRHPQEGAARLATEFSGNVPVLNAGDGSNQHPTQTLLDLFTIQETQGRLDNLHVAMVGDLKYGRTVHSLTQALAKFDGNRFYFIAPDALAMPQYILDMLDEKGIAWSLHSSIEEVMAEVDILYMTRVQKERLDPSEYANVKAQFVLRASDLHNAKANMKVLHPLPRVDEIATDVDKTPHAWYFQQAGNGIFARQALLALVLNRDLVL | binds
E. coli aspartate transcarbamoylase (ATCase) regulatory chain (natural protein, E. coli (endogenous in BL21(DE3)), UniProt P0A7F3 1-153, looked up, Aspartate transcarbamoylase regulatory chain, E. coli, wild type, native; also called regulatory subunit; source: endogenous, extracted from E. coli BL21(DE3), purified as native holoenzyme (Ni-NTA, HiLoad Superdex 200)) MTHDNKLQVEAIKRGTVIDHIPAQIGFKLLSLFKLTETDQRITIGLNLPSGEMGRKDLIKIENTFLSEDQVDQLALYAPQATVNRIDNYEVVGKSRPSLPERIDNVLVCPNSNCISHAEPVSSSFAVRKRANDIALKCKYCEKEFSHNVVLAN | binds
